Assay: Burst release of lysozyme from coated nanoparticles in release media
Type: physicochemical
Conditions: PBS with 0.2 wt % Tween-20 versus PBS, 37° C.

lysozyme
increase of burst release in presence of surfactant: 25%
